Here are results for one substance from patent publication US20030082185A1.

The target of this test is HIV-1 JR-FL gp120 envelope glycoprotein (HIV-1 JR-FL). The test is described as follows: cell-based or functional assay.

In the case of “CD4-IgG2 (from UniProt P01730 26-204; P01730 26-204) (Fc fusion)”, the K (equal to the IC50) for inhibition of HIV-1 env-mediated membrane fusion, RET assay, HeLa-EnvJR-FL and PM1 cells is 0.31 µg/mL.
